PMC9482650, “Quantitative fragmentomics allow affinity mapping of interactomes” (Nature Communications, 2022)

How the values were obtained:
Assay in all cases: holdup assay
Parameters in all cases: key: below the threshold = too weak to quantify, mostly under pKd 3.1 to 4
Settings in all cases: plain residues with an end cap or a label only (N-terminal biotin on a linker: ado-ado)
AHNAK1, Q09666 = target: AHNAK1, Q09666
APBA1_1, Q02410 = target: T1, APBA1_1, Q02410
T1 sequence (Q02410 651-752, limits assumed, looked up): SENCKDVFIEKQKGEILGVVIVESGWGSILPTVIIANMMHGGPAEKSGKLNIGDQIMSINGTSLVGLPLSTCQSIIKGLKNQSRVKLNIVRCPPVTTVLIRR

APBA1_2, Q02410 = target: T2, APBA1_2, Q02410
T2 sequence (Q02410 742-832, limits assumed, looked up): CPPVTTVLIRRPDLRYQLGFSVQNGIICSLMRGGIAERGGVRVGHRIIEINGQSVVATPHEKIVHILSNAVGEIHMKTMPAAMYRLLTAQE

DFNB31_2, Q9P202 = target: T3, DFNB31_2, Q9P202
T3 sequence (Q9P202 274-371, limits assumed, looked up): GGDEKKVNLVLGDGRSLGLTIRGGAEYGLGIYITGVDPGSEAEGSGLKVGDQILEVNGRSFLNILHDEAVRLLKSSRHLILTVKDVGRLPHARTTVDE

DLG1_2, Q12959 = target: DLG1_2, Q12959
DLG1_3, Q12959 = target: DLG1_3, Q12959
DLG3_3, Q92796 = target: T4, DLG3_3, Q92796
T4 sequence (Q92796 374-475, limits assumed, looked up): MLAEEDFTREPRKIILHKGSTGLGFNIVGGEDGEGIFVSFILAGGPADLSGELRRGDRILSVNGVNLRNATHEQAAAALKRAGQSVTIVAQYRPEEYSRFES

DVL3, Q92997 = target: T5, DVL3, Q92997
T5 sequence (Q92997 244-331, limits assumed, looked up): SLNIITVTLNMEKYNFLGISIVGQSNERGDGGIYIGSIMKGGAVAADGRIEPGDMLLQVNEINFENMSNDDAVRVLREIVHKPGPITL

FRMPD1, Q5SYB0 = target: T6, FRMPD1, Q5SYB0
T6 sequence (Q5SYB0 52-145, limits assumed, looked up): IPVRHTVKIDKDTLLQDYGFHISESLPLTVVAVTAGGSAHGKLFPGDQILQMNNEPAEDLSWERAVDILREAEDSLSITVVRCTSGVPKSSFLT

FRMPD3, Q5JV73 = target: FRMPD3, Q5JV73
GOPC, Q9HD26 = target: GOPC, Q9HD26
GRIP1_5, Q9Y3R0 = target: T7, GRIP1_5, Q9Y3R0
T7 sequence (Q9Y3R0 568-668, limits assumed, looked up): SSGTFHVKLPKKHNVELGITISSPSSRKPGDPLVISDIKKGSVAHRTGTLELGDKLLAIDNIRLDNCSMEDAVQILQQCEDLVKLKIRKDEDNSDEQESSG

GRIP2_3, Q9C0E4 = target: GRIP2_3, Q9C0E4
HTRA3, P83110 = target: T8, HTRA3, P83110
T8 sequence (P83110 354-453, limits assumed, looked up): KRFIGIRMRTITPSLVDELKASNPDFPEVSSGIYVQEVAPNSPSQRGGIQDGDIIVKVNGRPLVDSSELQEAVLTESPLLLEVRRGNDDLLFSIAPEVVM

Inadl_10, Q8NI35 = target: Inadl_10, Q8NI35
Inadl_4, Q8NI35 = target: Inadl_4, Q8NI35
Inadl_5, Q8NI35 = target: Inadl_5, Q8NI35
Inadl_8, Q8NI35 = target: Inadl_8, Q8NI35
Inadl_9, Q8NI35 = target: Inadl_9, Q8NI35
LNX2_2, Q8N448 = target: T9, LNX2_2, Q8N448
T9 sequence (Q8N448 334-432, limits assumed, looked up): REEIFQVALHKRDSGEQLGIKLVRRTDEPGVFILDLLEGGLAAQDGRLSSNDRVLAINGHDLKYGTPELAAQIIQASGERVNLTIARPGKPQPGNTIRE

NHERF4_1, Q86UT5-2 = target: NHERF4_1, Q86UT5-2
NOS1, P29475 = target: NOS1, P29475
PDLIM1, O00151 = target: PDLIM1, O00151
PDZRN4_1, Q6ZMN7 = target: PDZRN4_1, Q6ZMN7
PTPN3, P26045 = target: PTPN3, P26045
SCRIB_1, Q14160 = target: SCRIB_1, Q14160
SCRIB_3, Q14160 = target: SCRIB_3, Q14160
TJP1_3, Q07157 = target: TJP1_3, Q07157
TJP2_1, Q9UDY2 = target: TJP2_1, Q9UDY2
Chain of TJP2_1, Q9UDY2 (Q9UDY2 24-128): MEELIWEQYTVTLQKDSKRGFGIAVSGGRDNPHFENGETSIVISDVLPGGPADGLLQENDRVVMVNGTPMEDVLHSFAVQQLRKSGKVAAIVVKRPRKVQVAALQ

Chain of NOS1, P29475 (P29475 9-101): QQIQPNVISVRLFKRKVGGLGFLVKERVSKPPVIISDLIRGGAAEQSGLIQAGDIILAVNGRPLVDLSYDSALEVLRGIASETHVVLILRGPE
Chain of PDLIM1, O00151 (O00151 1-87): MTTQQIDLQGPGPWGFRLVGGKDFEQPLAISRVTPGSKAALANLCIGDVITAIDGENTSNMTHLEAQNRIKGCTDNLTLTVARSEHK
Chain of PDZRN4_1, Q6ZMN7 (Q6ZMN7 213-318): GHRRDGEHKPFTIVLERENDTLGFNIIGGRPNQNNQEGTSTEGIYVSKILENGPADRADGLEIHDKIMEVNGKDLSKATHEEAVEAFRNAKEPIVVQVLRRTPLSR
Chain of DLG1_2, Q12959 (Q12959 314-412): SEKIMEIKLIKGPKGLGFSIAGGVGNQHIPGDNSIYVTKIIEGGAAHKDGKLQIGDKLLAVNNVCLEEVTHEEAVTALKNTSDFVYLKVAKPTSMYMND
Chain of SCRIB_3, Q14160 (Q14160 999-1103): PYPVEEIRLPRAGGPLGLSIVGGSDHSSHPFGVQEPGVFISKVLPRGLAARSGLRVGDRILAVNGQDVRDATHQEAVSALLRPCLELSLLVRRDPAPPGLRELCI
Chain of Inadl_8, Q8NI35 (Q8NI35 1425-1530): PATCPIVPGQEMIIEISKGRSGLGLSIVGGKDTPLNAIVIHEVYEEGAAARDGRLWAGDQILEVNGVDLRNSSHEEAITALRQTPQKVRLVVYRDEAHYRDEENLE
Chain of TJP1_3, Q07157 (Q07157 416-512): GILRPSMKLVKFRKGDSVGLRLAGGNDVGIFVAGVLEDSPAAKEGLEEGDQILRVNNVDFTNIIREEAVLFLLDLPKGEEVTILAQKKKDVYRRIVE
Chain of FRMPD3, Q5JV73 (Q5JV73 12-100): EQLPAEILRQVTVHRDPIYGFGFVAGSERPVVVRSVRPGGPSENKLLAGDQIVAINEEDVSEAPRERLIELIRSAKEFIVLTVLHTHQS
Chain of GRIP2_3, Q9C0E4 (Q9C0E4 238-339): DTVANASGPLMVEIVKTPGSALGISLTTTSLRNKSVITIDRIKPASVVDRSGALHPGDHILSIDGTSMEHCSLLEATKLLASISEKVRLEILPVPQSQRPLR
Chain of DLG1_3, Q12959 (Q12959 457-571): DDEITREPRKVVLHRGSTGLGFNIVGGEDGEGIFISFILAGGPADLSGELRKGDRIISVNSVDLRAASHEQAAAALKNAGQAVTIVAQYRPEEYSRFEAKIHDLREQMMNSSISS
Chain of AHNAK1, Q09666 (Q09666 4-100): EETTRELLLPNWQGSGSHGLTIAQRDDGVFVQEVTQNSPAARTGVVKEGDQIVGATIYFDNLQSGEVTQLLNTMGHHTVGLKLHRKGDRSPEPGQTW
Chain of SCRIB_1, Q14160 (Q14160 718-814): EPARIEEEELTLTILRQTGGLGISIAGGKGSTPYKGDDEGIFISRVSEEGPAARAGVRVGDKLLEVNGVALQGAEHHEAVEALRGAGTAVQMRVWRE
Chain of Inadl_9, Q8NI35 (Q8NI35 1530-1615): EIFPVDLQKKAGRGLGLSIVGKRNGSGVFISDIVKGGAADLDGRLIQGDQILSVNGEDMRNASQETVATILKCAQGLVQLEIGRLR
Chain of NHERF4_1, Q86UT5-2 (Q86UT5 other isoform, or with tags, fused parts or gaps): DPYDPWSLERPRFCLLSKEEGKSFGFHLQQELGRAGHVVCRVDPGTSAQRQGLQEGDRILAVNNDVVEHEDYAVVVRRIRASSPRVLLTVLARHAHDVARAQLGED
Chain of Inadl_10, Q8NI35 (Q8NI35 1673-1763): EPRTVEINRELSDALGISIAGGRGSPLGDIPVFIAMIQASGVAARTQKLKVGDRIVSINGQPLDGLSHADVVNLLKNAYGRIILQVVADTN
Chain of Inadl_5, Q8NI35 (Q8NI35 673-780): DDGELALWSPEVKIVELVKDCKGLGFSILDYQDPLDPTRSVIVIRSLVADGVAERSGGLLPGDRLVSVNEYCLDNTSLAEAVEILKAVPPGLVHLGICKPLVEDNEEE
Chain of Inadl_4, Q8NI35 (Q8NI35 547-651): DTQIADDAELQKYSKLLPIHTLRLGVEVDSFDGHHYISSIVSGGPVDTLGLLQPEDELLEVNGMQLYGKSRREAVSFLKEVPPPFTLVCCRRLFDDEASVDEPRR
Chain of PTPN3, P26045 (P26045 505-587): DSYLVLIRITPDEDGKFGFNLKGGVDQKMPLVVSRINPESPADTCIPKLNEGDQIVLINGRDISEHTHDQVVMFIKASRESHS

| Binder | pKd (AHNAK1, Q09666) | pKd (APBA1_1, Q02410) | pKd (APBA1_2, Q02410) | pKd (DFNB31_2, Q9P202) | pKd (DLG1_2, Q12959) | pKd (DLG1_3, Q12959) | pKd (DLG3_3, Q92796) | pKd (DVL3, Q92997) | pKd (FRMPD1, Q5SYB0) | pKd (FRMPD3, Q5JV73) | pKd (GOPC, Q9HD26) | pKd (GRIP1_5, Q9Y3R0) | pKd (GRIP2_3, Q9C0E4) | pKd (HTRA3, P83110) | pKd (Inadl_10, Q8NI35) | pKd (Inadl_4, Q8NI35) | pKd (Inadl_5, Q8NI35) | pKd (Inadl_8, Q8NI35) | pKd (Inadl_9, Q8NI35) | pKd (LNX2_2, Q8N448) | also measured |
| --- | --- | --- | --- | --- | --- | --- | --- | --- | --- | --- | --- | --- | --- | --- | --- | --- | --- | --- | --- | --- | --- |
| VLYPREGTEV [FOXI1, Q12951] | below the threshold | below the threshold | 4.51 | below the threshold | 4.84 | 3.75 | 3.8 | below the threshold | below the threshold | below the threshold | 3.52 | below the threshold | below the threshold | below the threshold | below the threshold | below the threshold | 3.83 | 3.82 | 4.03 | 4.22 | pKd (NHERF4_1, Q86UT5-2): 3.71; pKd (NOS1, P29475): 4.05; pKd (PDLIM1, O00151): 3.81; pKd (PDZRN4_1, Q6ZMN7): 4.25; pKd (PTPN3, P26045): 4.76; pKd (SCRIB_1, Q14160): 3.99; pKd (SCRIB_3, Q14160): 4.36; pKd (TJP1_3, Q07157): below the threshold; pKd (TJP2_1, Q9UDY2): 4 |
| GTGYDRKDYV [CLDN3, O15551] | below the threshold | below the threshold | 4.24 | below the threshold | below the threshold | 3.67 | 3.64 | 3.72 | below the threshold | below the threshold | below the threshold | below the threshold | below the threshold | 4.17 | below the threshold | below the threshold | 3.49 | 4.13 | 3.93 | 4.04 | pKd (NHERF4_1, Q86UT5-2): 3.66; pKd (NOS1, P29475): 4.45; pKd (PDLIM1, O00151): below the threshold; pKd (PDZRN4_1, Q6ZMN7): below the threshold; pKd (PTPN3, P26045): 4.04; pKd (SCRIB_1, Q14160): below the threshold; pKd (SCRIB_3, Q14160): below the threshold; pKd (TJP1_3, Q07157): 3.54; pKd (TJP2_1, Q9UDY2): 3.94 |
| RDPPAEWTRV [PTPN18, Q99952] | below the threshold | below the threshold | 4.25 | below the threshold | 4.48 | below the threshold | below the threshold | below the threshold | below the threshold | below the threshold | 4.3 | below the threshold | below the threshold | below the threshold | 3.61 | below the threshold | below the threshold | 4.2 | 3.66 | 5.15 | pKd (NHERF4_1, Q86UT5-2): 3.62; pKd (NOS1, P29475): 3.66; pKd (PDLIM1, O00151): below the threshold; pKd (PDZRN4_1, Q6ZMN7): below the threshold; pKd (PTPN3, P26045): below the threshold; pKd (SCRIB_1, Q14160): 4.1; pKd (SCRIB_3, Q14160): below the threshold; pKd (TJP1_3, Q07157): below the threshold; pKd (TJP2_1, Q9UDY2): 3.6 |
